# Measured values reported in the supplement of paper PMC7125110.
# ± gives the standard error. For some assays here: Variants at the floor of the assay were thinned out.
# B1: glmS ribozyme (parent)
# chain: AUAAAAGCGCCAGAACUACAGAAAUGUAGUUGACGAGGAGGAGGUUUAUCGAAUUUUCGGCGGAUGCCUCCAAA
# Legend:
# Conditions in all cases: with glucosamine-6-phosphate
# glucosamine-6-phosphate [1] = variants of: B1; assay: kcat; higher = faster cleavage; RNA array
# How it was run: (§1)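 On sequenced MiSeq chips, barcoded ribozyme variants were made in situ by E. coli RNA polymerase and followed at 37 °C through a hybridised Cy3 probe. Glucosamine-6-phosphate was flowed in at 40 μM to 10 mM in HEPES/KCl/Mg(OAc)2 buffer. Exponential fits to normalised per-tile medians gave kobs, and weighted Michaelis–Menten fits gave kcat and KM.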
# glucosamine-6-phosphate [2] = variants of: B1; assay: KM; higher = weaker cofactor use; RNA array
# How it was run: as §1
# glucosamine-6-phosphate [3] = variants of: B1; assay: self-cleavage kobs at 640 uM GlcN6P; higher = faster cleavage; RNA array
# How it was run: as §1
# glucosamine-6-phosphate [4] = variants of: B1; assay: self-cleavage kobs at 2500 uM GlcN6P; higher = faster cleavage; RNA array
# How it was run: as §1
# glucosamine-6-phosphate [5] = variants of: B1; assay: self-cleavage kobs at 10000 uM GlcN6P; higher = faster cleavage; RNA array
# How it was run: as §1
# glucosamine-6-phosphate [6] = variants of: B1; assay: self-cleavage kobs at 40 uM GlcN6P; higher = faster cleavage; RNA array
# How it was run: as §1
# glucosamine-6-phosphate [7] = variants of: B1; assay: self-cleavage kobs at 160 uM GlcN6P; higher = faster cleavage; RNA array
# How it was run: as §1
Variant,kcat (glucosamine-6-phosphate [1]) [s⁻¹],KM (glucosamine-6-phosphate [2]) [µM],self-cleavage kobs at 640 uM GlcN6P (glucosamine-6-phosphate [3]) [s⁻¹],self-cleavage kobs at 2500 uM GlcN6P (glucosamine-6-phosphate [4]) [s⁻¹],self-cleavage kobs at 10000 uM GlcN6P (glucosamine-6-phosphate [5]) [s⁻¹],self-cleavage kobs at 40 uM GlcN6P (glucosamine-6-phosphate [6]) [s⁻¹],self-cleavage kobs at 160 uM GlcN6P (glucosamine-6-phosphate [7]) [s⁻¹]
A48G U55C,0.000123 ± 9.6e-06,458 ± 210,7.4e-05 ± 2.3e-05,0.000125 ± 2.5e-05,0.000113 ± 1.3e-05,–,–
U49A C71G,2.68e-05 ± 1e-05,–,3.32e-05 ± 1.2e-05,–,–,–,–
U49A C71A,< 1e-05,–,–,–,–,–,–
U49A A64G,2.04e-05 ± 1.6e-06,2090 ± 850,–,–,–,–,–
U46C U56C,0.000648 ± 3.9e-05,866 ± 190,0.000246 ± 7.8e-05,0.000514 ± 0.00014,0.000596 ± 7.5e-05,–,–
U47A G59U,5.89e-05 ± 1.5e-06,–,–,–,–,–,–
U47G U56G,0.00559 ± 0.00071,1560 ± 280,0.00151 ± 0.00034,0.00299 ± 0.00058,0.00556 ± 0.00097,0.000148 ± 2.2e-05,0.000523 ± 0.00015
A48G C61A,1.07e-05 ± 3.1e-06,–,–,–,–,–,–
U49A U69G,5.15e-05 ± 2.2e-05,–,4.76e-05 ± 1.8e-05,8.54e-05 ± 1.8e-05,–,–,–
U45G A48G,2.93e-05 ± 2.6e-06,2270 ± 860,–,–,–,–,–
A48G A52G,1.36e-05 ± 9.9e-07,–,< 1e-05,–,–,–,–
U47C U56A,0.00197 ± 0.00092,–,0.000985 ± 0.00018,0.00159 ± 0.00039,0.00143 ± 0.00023,3.94e-05 ± 9.3e-06,8.88e-05 ± 1.6e-05
U47C U56C,0.00115 ± 0.00017,1940 ± 650,0.000323 ± 7.3e-05,0.00061 ± 0.00012,0.000972 ± 0.00016,–,–
U49A U65G,< 1e-05,–,–,–,< 1e-05,–,< 1e-05
U47C C68A,3.98e-05 ± 6.2e-06,–,–,4.92e-05 ± 1.8e-05,3.44e-05 ± 1.2e-05,–,–
U47C C68U,0.00114 ± 0.0002,1650 ± 540,0.000286 ± 4.6e-05,0.000609 ± 0.0001,0.00107 ± 0.00015,3.33e-05 ± 1.2e-05,0.000149 ± 3.6e-05
A48G C71G,1.72e-05 ± 7.5e-06,–,–,–,–,–,–

Variant,kcat (glucosamine-6-phosphate [1]) [s⁻¹],KM (glucosamine-6-phosphate [2]) [µM],self-cleavage kobs at 640 uM GlcN6P (glucosamine-6-phosphate [3]) [s⁻¹],self-cleavage kobs at 2500 uM GlcN6P (glucosamine-6-phosphate [4]) [s⁻¹],self-cleavage kobs at 10000 uM GlcN6P (glucosamine-6-phosphate [5]) [s⁻¹],self-cleavage kobs at 40 uM GlcN6P (glucosamine-6-phosphate [6]) [s⁻¹],self-cleavage kobs at 160 uM GlcN6P (glucosamine-6-phosphate [7]) [s⁻¹]
U46A U47G,0.00143 ± 0.00056,–,0.000647 ± 0.00013,0.00107 ± 0.00027,0.00106 ± 0.00029,–,9.77e-05 ± 3.5e-05
U47C U69A,0.000275 ± 6.6e-05,–,5.97e-05 ± 2.2e-05,0.000178 ± 5.8e-05,0.00023 ± 3.1e-05,2.9e-05 ± 1.4e-05,–
U47A U57A,0.000331 ± 5.6e-05,6360 ± 1900,3.47e-05 ± 9.4e-06,8.34e-05 ± 2e-05,0.000205 ± 2.7e-05,–,–
U46G C67A,0.00184 ± 0.00032,818 ± 220,0.000783 ± 0.0001,0.00146 ± 0.00022,0.00173 ± 0.00021,0.000105 ± 1.1e-05,0.000224 ± 3.9e-05
U45A A64U,0.000543 ± 3.2e-05,2140 ± 230,0.00013 ± 2.1e-05,0.00029 ± 4.4e-05,0.000447 ± 7.9e-05,–,–
U45G C67G,0.000915 ± 0.00011,1420 ± 340,0.000303 ± 4.8e-05,0.000477 ± 0.00011,0.000846 ± 0.00011,3.25e-05 ± 1.2e-05,7.93e-05 ± 2.7e-05
U45G C67U,0.00709 ± 0.0025,2100 ± 1100,0.00181 ± 0.00028,0.00248 ± 0.00057,0.00733 ± 0.00094,0.000204 ± 3.5e-05,0.000462 ± 6.3e-05
U45G U46A,0.00906 ± 0.0029,3870 ± 1700,0.000705 ± 0.00032,–,0.00686 ± 0.0011,0.000106 ± 1.7e-05,0.000641 ± 0.00023
U49C C61U,1.01e-05 ± 1.5e-06,–,–,–,< 1e-05,–,–
U46C A53C,0.002 ± 0.00044,1380 ± 480,0.000706 ± 0.00013,0.00155 ± 0.00033,0.00162 ± 0.0003,7.57e-05 ± 1.7e-05,0.000151 ± 4e-05
U47A,0.0447 ± 0.0064,2150 ± 360,0.00994 ± 0.00044,0.0201 ± 0.0011,0.0412 ± 0.0016,0.00084 ± 1.5e-05,0.00266 ± 0.00018
U47G,0.0175 ± 0.00086,2130 ± 130,0.00389 ± 0.00017,0.00997 ± 0.00041,0.0142 ± 0.00058,0.000326 ± 7.1e-06,0.00112 ± 9.8e-05
U47C,0.00454 ± 0.0006,1380 ± 250,0.00142 ± 4.2e-05,0.00412 ± 0.00014,0.00375 ± 9.2e-05,0.000129 ± 2.6e-06,0.000428 ± 1.8e-05
U47G U57A,0.000141 ± 1.3e-05,1670 ± 420,4.42e-05 ± 1.5e-05,7.57e-05 ± 2.1e-05,0.000125 ± 2.4e-05,–,–
U47G U57C,0.000206 ± 2.4e-05,6430 ± 1500,–,5.65e-05 ± 1.2e-05,0.000126 ± 1.3e-05,–,–
U47A C71A,0.00195 ± 0.00046,1020 ± 320,0.00117 ± 0.00028,0.00138 ± 0.00038,0.00153 ± 0.00055,6.97e-05 ± 1.4e-05,0.000253 ± 6.8e-05
